# Experimental data taken from patent US20150183867A1 (AbbVie / Abbott, published 2015).
# T1: Aβ 20-42 globulomer (UniProt P05067 691-713)
# T1 construct: domain: Aβ 20-42 globulomer
# T1 peptide (looked up): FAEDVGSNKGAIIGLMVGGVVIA
# B1: DVD225 (bispecific antibody, human IgG1, kappa)
# heavy: not shown
# light: DVVMTQSPLSLPVTPGEPASISCKSSQSLLDSDGKTYLNWLLQKPGQSPQRLIYLVSKLDSGVPDRFSGSGSGTDFTLKISRVEAEDVGVYYCWQGTHFPRTFGQGTKVEIKRTVAAPEIVLTQSPDFQSVTPKEKVTITCRASQSIGSSLHWYQQKPDQSPKLLIKYASQSFSGVPSRFSGSGSGTDFTLTINSLEAEDAAAYYCHQSSSLPFTFGPGTKVDIKRTVAAPSVFIFPPSDEQLKSGTASVVCLLNNFYPREAKVQWKVDNALQSGNSQESVTEQDSKDSTYSLSSTLTLSKADYEKHKVYACEVTHQGLSSPVTKSFNRGEC
# notes: DVD-Ig; also called VD225H/VD225L
# B2: DVD226 (bispecific antibody, human IgG1, kappa)
# heavy: not shown
# light: EIVLTQSPDFQSVTPKEKVTITCRASQSIGSSLHWYQQKPDQSPKLLIKYASQSFSGVPSRFSGSGSGTDFTLTINSLEAEDAAAYYCHQSSSLPFTFGPGTKVDIKRTVAAPDVVMTQSPLSLPVTPGEPASISCKSSQSLLDSDGKTYLNWLLQKPGQSPQRLIYLVSKLDSGVPDRFSGSGSGTDFTLKISRVEAEDVGVYYCWQGTHFPRTFGQGTKVEIKRTVAAPSVFIFPPSDEQLKSGTASVVCLLNNFYPREAKVQWKVDNALQSGNSQESVTEQDSKDSTYSLSSTLTLSKADYEKHKVYACEVTHQGLSSPVTKSFNRGEC
# notes: DVD-Ig; also called VD226H/VD226L
# B3: DVD229 (bispecific antibody, human IgG1, lambda)
# heavy: not shown
# light: DVVMTQSPLSLPVTPGEPASISCKSSQSLLDSDGKTYLNWLLQKPGQSPQRLIYLVSKLDSGVPDRFSGSGSGTDFTLKISRVEAEDVGVYYCWQGTHFPRTFGQGTKVEIKRTVAAPQSVLTQPPSVSAAPGQKVTISCSGSSSNIENNHVSWYQQLPGTAPKLLIYDNNKRPSGIPDRFSGSKSGTSATLGITGLQTGDEADYYCETWDTSLSAGRVFGGGTKLTVLGQPKAAPSVTLFPPSSEELQANKATLVCLISDFYPGAVTVAWKADSSPVKAGVETTTPSKQSNNKYAASSYLSLTPEQWKSHRSYSCQVTHEGSTVEKTVAPTECS
# notes: DVD-Ig; also called VD229H/VD229L
# B4: AB043 (antibody, human IgG1, kappa, V domains shown)
# VH: EVQLLESGGGLVQPGGSLRLSCAASGFTFSNYGMSWVRQAPGKGLEWVASIRSGGGRTYYSDNVKGRFTISRDNSKNTLYLQMNSLRAEDTAVYYCVRYDHYSGSSDYWGQGTLVTVSS
# VL: DVVMTQSPLSLPVTPGEPASISCKSSQSLLDSDGKTYLNWLLQKPGQSPQRLIYLVSKLDSGVPDRFSGSGSGTDFTLKISRVEAEDVGVYYCWQGTHFPRTFGQGTKVEIKR
# B5: AB010 (antibody, human IgG1, lambda, V domains shown)
# VH: QVQLVQSGAEVKKPGASVKVSCKASGYTFTSYDINWVRQATGQGLEWMGWMNPNSGNTGYAQKFQGRVTMTRNTSISTAYMELSSLRSEDTAVYYCARDPYYYYYGMDVWGQGTTVTVSS
# VL: QSVLTQPPSVSAAPGQKVTISCSGSSSNIENNHVSWYQQLPGTAPKLLIYDNNKRPSGIPDRFSGSKSGTSATLGITGLQTGDEADYYCETWDTSLSAGRVFGGGTKLTVLG
# notes: also called IGF1,2 parent antibody
# B6: DVD201 (bispecific antibody, human IgG1, kappa)
# heavy: not shown
# light: DVLVTQSPLSLPVTPGEPASISCRSTQTLVHRNGDTYLEWYLQKPGQSPQSLIYKVSNRFSGVPDRFSGSGSGTDFTLKISRVEAEDVGVYYCFQGSHVPYTFGQGTKLEIKRTVAAPDVVMTQSPLSLPVTPGEPASISCKSSQSLLDSDGKTYLNWLLQKPGQSPQRLIYLVSKLDSGVPDRFSGSGSGTDFTLKISRVEAEDVGVYYCWQGTHFPRTFGQGTKVEIKRTVAAPSVFIFPPSDEQLKSGTASVVCLLNNFYPREAKVQWKVDNALQSGNSQESVTEQDSKDSTYSLSSTLTLSKADYEKHKVYACEVTHQGLSSPVTKSFNRGEC
# notes: DVD-Ig; also called VD201H/VD201L
# B7: DVD202 (bispecific antibody, human IgG1, kappa)
# heavy: not shown
# light: DVVMTQSPLSLPVTPGEPASISCKSSQSLLDSDGKTYLNWLLQKPGQSPQRLIYLVSKLDSGVPDRFSGSGSGTDFTLKISRVEAEDVGVYYCWQGTHFPRTFGQGTKVEIKRTVAAPDVLVTQSPLSLPVTPGEPASISCRSTQTLVHRNGDTYLEWYLQKPGQSPQSLIYKVSNRFSGVPDRFSGSGSGTDFTLKISRVEAEDVGVYYCFQGSHVPYTFGQGTKLEIKRTVAAPSVFIFPPSDEQLKSGTASVVCLLNNFYPREAKVQWKVDNALQSGNSQESVTEQDSKDSTYSLSSTLTLSKADYEKHKVYACEVTHQGLSSPVTKSFNRGEC
# notes: DVD-Ig; also called VD202H/VD202L
# B8: AB044 (antibody, human IgG1, lambda, V domains shown)
# VH: EVKLVESGGGLVKPGGSLRLSCAASGFTFSSYAMSWVRQAPGKGLEWVASIHNRGTIFYLDSVKGRFTISRDNVRNTLYLQMNSLRAEDTAVYYCTRGRSNSYAMDYWGQGTSVTVSS
# VL: DVLVTQSPLSLPVTPGEPASISCRSTQTLVHRNGDTYLEWYLQKPGQSPQSLIYKVSNRFSGVPDRFSGSGSGTDFTLKISRVEAEDVGVYYCFQGSHVPYTFGQGTKLEIKR
# notes: the light constant region is therefore doubtful
# Assays:
# Recombinant Human IL-1β [1] = target: T2, Recombinant Human IL-1β (human, UniProt P01584 117-269); assay: direct bind ELISA, antigen on plate; C-terminal VD
# T2 construct: Bought reagent; also called IL-1B
# Protocol: (§1) Enzyme Linked Immunosorbent Assays to screen for antibodies that bind a desired target antigen were performed as follows. High bind ELISA plates (Corning Costar #3369, Acton, Mass.) were coated with 100 μL/well of 10 μg/ml of desired target antigen (R&D Systems, Minneapolis, Minn.) or desired target antigen extra-cellular domain/FC fusion protein (R&D Systems, Minneapolis, Minn.) or monoclonal mouse anti-polyHistidine antibody (R&D Systems # MAB050, Minneapolis, Minn.) in phosphate buffered saline (10×PBS, Abbott Bioresearch Center, Media Prep# MPS-073, Worcester, Mass.) overnight at 4° C. Plates were washed four times with PBS containing 0.02% Tween 20. Plates were blocked by the addition of 300 μL/well blocking solution (non-fat dry milk powder, various retail suppliers, diluted to 2% in PBS) for 1/2 hour at room temperature. Plates were washed four times after blocking with PBS containing 0.02% Tween 20.
# (§2) One hundred microliters of antibody or DVD-Ig preparations diluted in blocking solution as described above was added to the desired target antigen plate or desired target antigen/FC fusion plate or the anti-polyHistidine antibody/His tagged desired target antigen plate prepared as described above and incubated for 1 hour at room temperature. Wells were washed four times with PBS containing 0.02% Tween 20.
# (§3) One hundred microliters of 10 ng/mL goat anti-human IgG-FC specific HRP conjugated antibody (Southern Biotech #2040-05, Birmingham, Ala.) was added to each well of the desired target antigen plate or anti-polyHistidine antibody/Histidine tagged desired target antigen plate. Alternatively, one hundred microliters of 10 ng/mL goat anti-human IgG-kappa light chain specific HRP conjugated antibody (Southern Biotech #2060-05 Birmingham, Ala.) was added to each well of the desired target antigen/FC fusion plate and incubated for 1 hour at room temperature. Plates were washed 4 times with PBS containing 0.02% Tween 20.
# Recombinant Human IL-1β [2] = target: T2, Recombinant Human IL-1β; assay: cell-based or functional assay
# Aβ1-42 [3] = target: T3, Aβ1-42 (UniProt P05067 672-713); assay: Aβ 1-42 ELISA, peptide on plate; N-terminal VD
# T3 construct: domain: Aβ1-42; Aβ 1-42 is a part of it; also called A beta
# Protocol: (§4) ELISA assays were performed to screen for antibodies that bind a desired target antigen as follows. Maxisorb NUNC Immuno plates were coated with 100 μL/well of 1 μg/ml of Aβ1-42 diluted in coating buffer overnight at 6° C. Plates were washed three times with PBS containing 0.02% Tween 20. Blocking solution was prepared by dissolving the blocking reagent for ELISA (Roche) in 100 mL water and then diluted further 1:10 prior to use. Plates were blocked by the addition of 265 μL/well blocking solution for 2 hours at room temperature. Plates were washed three times after blocking with PBS containing 0.02% Tween 20.
# (§5) Antibody or DVD-Igs were diluted to 100 ng/μL in PBST+0.5% BSA and serially diluted 1:3. One hundred microliters of antibody or DVD-Ig preparations was added to the plate and incubated for 2 hour at room temperature. Wells were washed three times with PBS containing 0.02% Tween 20.
# (§6) One hundred microliters of TMB solution was added to each well and incubated for 10 minutes. TMB solution was prepared by mixing 20 mL 100 mM natrium-acetate pH4.9 with 200 μL TMB solution (Roche #92817060) and 29.5 μL 3% H₂O₂. The reaction was stopped by the addition of 50 μL 1N sulphuric acid. Plates were read spectrophotometrically at a wavelength of 450 nm.
# Recombinant Human IL-1β [4] = target: T2, Recombinant Human IL-1β; assay: direct bind ELISA, antigen on plate; N-terminal VD
# Protocol: as §1, §2, §3
# Aβ1-42 [5] = target: T3, Aβ1-42; assay: Aβ 1-42 ELISA, peptide on plate; C-terminal VD
# Protocol: as §4, §5, §6
# IGF-I [6] = target: T4, IGF-I (UniProt P05019 49-118); assay: direct bind ELISA, antigen on plate; C-terminal VD
# T4 construct: Bought reagent; also called IGF1; IGF-1
# Protocol: as §1, §2, §3
# IGF-II [7] = target: T5, IGF-II (UniProt P01344 25-91); assay: direct bind ELISA, antigen on plate; C-terminal VD
# T5 construct: Bought reagent; also called IGF2; IGF-2
# Protocol: as §1, §2, §3
# Aβ1-42 [8] = target: T3, Aβ1-42; assay: Aβ 1-42 ELISA, peptide on plate; parent antibody
# Protocol: as §4, §5, §6
# IGF-II [9] = target: T5, IGF-II; assay: direct bind ELISA, antigen on plate; parent antibody; second of the two numbers, IGF2
# Protocol: as §1
# as §2, with “20. […]” for “20.”
# IGF-I [10] = target: T4, IGF-I; assay: direct bind ELISA, antigen on plate; parent antibody; first of the two numbers, IGF1
# Protocol: as §1
# as §2, with “20. […]” for “20.”
# Aβ 20-42 globulomer [11] = target: T1, Aβ 20-42 globulomer; assay: Aβ 20-42 globulomer ELISA, antigen on plate; N-terminal VD
# Protocol: (§7) ELISA assays were performed to screen for antibodies that bind a desired target antigen as follows. Aβ 20-42 globulomer and PBS at 37° C. was pre-warmed for 1 minute. High bind ELISA plates (Corning Costar #3369, Acton, Mass.) were coated with 100 μL/well of 41 µg/ml of Aβ 20-42 globulomer diluted in PBS overnight at 4° C. Plates were blocked with 320 μL/well of 100% superblock PBS buffer (Thermo Scientific, #37515) and incubated for 45 minutes at room temperature. Plates were washed three times after blocking with PBS containing 0.02% Tween 20.
# (§8) Antibody or DVD-Igs were diluted to 2000 ng/mL, 1000 ng/mL, 200 ng/mL, 40 ng/mL, 8 ng/mL, 1.6 ng/mL and 0.32 ng/mL in 10% superblock in PBS. One hundred microliters of antibody or DVD-Ig preparations was added to the plate in triplicate and incubated for 2 hours at room temperature. Wells were washed five times with PBS containing 0.02% Tween 20.
# (§9) One hundred microliters of TMB solution (Invitrogen-Zymed; #00-2023) was added to each well and incubated for 5 minutes. The reaction was stopped by the addition of 100 μL 2N sulphuric acid. Plates were read spectrophotometrically at a wavelength of 450 nm.
# Aβ 20-42 globulomer [12] = target: T1, Aβ 20-42 globulomer; assay: Aβ 20-42 globulomer ELISA, antigen on plate; C-terminal VD
# Protocol: as §7, §8, §9
# Aβ 20-42 globulomer [13] = target: T1, Aβ 20-42 globulomer; assay: Aβ 20-42 globulomer ELISA, antigen on plate; parent antibody
# Protocol: as §7, §8, §9
binder,measurement,setting,value
B1,EC50,Recombinant Human IL-1β [1],3940 nM
same,C-Terminal VD IL-1β Neutralization Assay EC50,Recombinant Human IL-1β [2],12.7 nM
same,EC50,Aβ1-42 [3],0.016 nM
B2,N-Terminal VD IL-1β Neutralization Assay EC50,Recombinant Human IL-1β [2],0.028 nM
same,EC50,Recombinant Human IL-1β [4],9.52 nM
same,EC50,Aβ1-42 [5],0.045 nM
B3,EC50,IGF-I [6],210 nM
same,EC50,IGF-II [7],131 nM
same,EC50,Aβ1-42 [3],0.016 nM
B4,EC50,Aβ1-42 [8],0.012 nM
B5,EC50,IGF-II [9],2.93 nM
same,EC50,IGF-I [10],10.1 nM
B6,EC50,Aβ1-42 [5],0.024 nM
same,EC50,Aβ 20-42 globulomer [11],0.397 nM
B7,EC50,Aβ 20-42 globulomer [12],0.178 nM
same,EC50,Aβ1-42 [3],0.017 nM
B8,EC50,Aβ 20-42 globulomer [13],0.319 nM
